Earlier results as cited in article PMC6070697.

Experiments:
Assay in all cases: kinetics
Conditions in all cases: enzyme turning over with acetyl-CoA and an amine substrate
Glu26 = tested on: Glu26
Glu34 = Glu34 (UniProt position 34, HYYPEEPLTAG)
Glu47 = Glu47 (UniProt position 82, FFFKDEPLNTF)

For “Arylalkylamine N-acetyltransferase like 7 (Dm-AANATL7) (Drosophila melanogaster)”, the pKa (Glu26) is given as “approximately pH 7.5”.

In the case of “Agmatine N-acetyltransferase (Dm-AgmNAT; formerly Dm-AANATL8) (Drosophila melanogaster)”, the pKa (Glu34) is listed as “approximately pH 7.5”.

For “Arylalkylamine N-acetyltransferase A (Dm-AANATA; dopamine N-acetyltransferase) (Drosophila melanogaster)”, the pKa (Glu47) is listed as “approximately pH 7.5”.
